According to patent US20230118307A1, “THERAPEUTIC USE OF LONG-ACTING CONJUGATE OF TRIPLE AGONIST HAVING ACTIVITIES TO ALL OF GLUCAGON/GLP-1/GIP RECEPTORS FOR LUNG DISEASE” (HANMI PHARM. CO., LTD., priority 2020, published 2023):
Positions of bridges follow the written chain, without caps; N, C: chain ends. Non-standard residues stand in square brackets, D forms with d. No end group written: not given here. *: point of attachment. Acetyl(2-(4-imidazolyl)) = O=C(Cc1c[nH]cn1)*; Aib = CC(C)(N)C(=O)O

T1: human GIP receptor (human, UniProt P48546 22-466)
T1 sequence (looked up): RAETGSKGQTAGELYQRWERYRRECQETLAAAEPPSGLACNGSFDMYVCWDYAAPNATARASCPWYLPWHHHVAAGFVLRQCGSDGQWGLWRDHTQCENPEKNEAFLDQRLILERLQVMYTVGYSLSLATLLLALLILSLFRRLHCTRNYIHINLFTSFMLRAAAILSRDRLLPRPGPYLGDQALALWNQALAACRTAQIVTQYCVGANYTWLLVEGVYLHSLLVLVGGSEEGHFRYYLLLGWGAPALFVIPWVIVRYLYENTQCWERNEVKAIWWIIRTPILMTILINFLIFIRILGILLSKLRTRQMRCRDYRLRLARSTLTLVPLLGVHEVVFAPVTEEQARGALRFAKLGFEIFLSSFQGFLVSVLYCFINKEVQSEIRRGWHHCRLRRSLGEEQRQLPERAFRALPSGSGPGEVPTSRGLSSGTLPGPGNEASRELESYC


Legend:
Assay in all cases: cell-based or functional assay
human GCG receptor = human GCG receptor (human, UniProt P47871 26-477)
human GLP-1 receptor = human GLP-1 receptor (human, UniProt P43220 24-463)
human GIP receptor = molecular target: T1, human GIP receptor

Sequence of human GCG receptor (P47871 26-477): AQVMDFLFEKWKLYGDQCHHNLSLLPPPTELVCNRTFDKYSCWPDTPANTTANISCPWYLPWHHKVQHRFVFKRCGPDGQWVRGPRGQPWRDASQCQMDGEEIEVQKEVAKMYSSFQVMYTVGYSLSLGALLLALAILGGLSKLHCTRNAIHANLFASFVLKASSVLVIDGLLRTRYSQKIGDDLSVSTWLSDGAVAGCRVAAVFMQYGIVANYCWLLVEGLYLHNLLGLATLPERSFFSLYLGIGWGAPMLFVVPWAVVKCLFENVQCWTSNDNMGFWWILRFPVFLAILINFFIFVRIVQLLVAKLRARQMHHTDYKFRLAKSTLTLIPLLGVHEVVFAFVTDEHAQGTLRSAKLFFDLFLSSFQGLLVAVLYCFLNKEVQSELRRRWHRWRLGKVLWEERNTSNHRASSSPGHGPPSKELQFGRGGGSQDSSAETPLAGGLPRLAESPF

| Binder | In vitro Activity Compared to Native Peptide (%) vs. Glucagon (human GCG receptor) [%] | In vitro Activity Compared to Native Peptide (%) vs. GLP-1 (human GLP-1 receptor) [%] | In vitro Activity Compared to Native Peptide (%) vs. GIP (human GIP receptor) [%] |
| --- | --- | --- | --- |
| Y[Aib]QGTFTSDYSKYLDEKRAKDFVQWLLDHHPSSGQPPPSC (bridge 16-20) [triple agonist of SEQ ID NO: 76] | 47.6 | 10.3 | 11.7 |
| Y[Aib]QGTFTSDYSKYLDECAAKEFVQWLLDHHPSSGQPPPS (bridge 16-20) [triple agonist of SEQ ID NO: 64] | 60.1 | 64.6 | 92.9 |
| [Acetyl(2-(4-imidazolyl))][Aib]QGTFTSDYSKCLDEKRAKEFVQWLLDHHPSSGQPPPS (bridge 16-20) [triple agonist of SEQ ID NO: 74] | 0.9 | 12.9 | 1 |
| [Acetyl(2-(4-imidazolyl))][Aib]EGTFTSDYSIAMDEIHQKDFVNWLLAQC (bridge 16-20) [triple agonist of SEQ ID NO: 83] | 1.3 | 47.3 | 0.4 |
| Y[Aib]QGTFTSDYSKYLDEKAAKDFVQWLLDHHPSSGQPPPSC (bridge 16-20) [triple agonist of SEQ ID NO: 77] | 12.2 | 38.7 | 35.5 |
| [Acetyl(2-(4-imidazolyl))][Aib]QGTFTSDYSKYLDEKRQKEFVQWLLDTC (bridge 16-20) [triple agonist of SEQ ID NO: 82] | 1.1 | 9.5 | < 0.1 |
| Y[Aib]QGTFTSDYSKYLDECRAKDFVQWLLDHHPSSGQPPPS (bridge 16-20) [triple agonist of SEQ ID NO: 66] | 172 | 15.8 | 17.2 |
| {Acetyl(2-(4-imidazolyl))}-[Aib]QGTFTSDCSKYLDERAAQDFVQWLLDGGPSSGAPPPS (ends and bridges not checked) [triple agonist of SEQ ID NO: 63] | < 0.1 | 15.3 | < 0.1 |
| H[Aib]QGTFTSDVSKYLDGQAAKEFVAWLLKGC [triple agonist of SEQ ID NO: 7] | < 0.1 | 13.7 | < 0.1 |
| [Acetyl(2-(4-imidazolyl))][Aib]QGTFTSDYSKYLDEKRQKEFVQWLLNTC (bridge 16-20) [triple agonist of SEQ ID NO: 81] | 0.3 | 7.8 | < 0.1 |
| [Acetyl(2-(4-imidazolyl))][Aib]QGTFTSDYSKYLDECRAKEFVQWLLDHHPSSGQPPPS (bridge 16-20) [triple agonist of SEQ ID NO: 73] | 5.4 | 22.6 | 3 |
| H[Aib]QGTFTSDVSKYLDGQAAQEFVAWLLKGC [triple agonist of SEQ ID NO: 8] | 0.1 | 14.2 | < 0.1 |
| H[Aib]EGTFTSDYSIAMDEIHQKDFVDWLLAEKC (bridge 16-20) [triple agonist of SEQ ID NO: 80] | 0 | 8.1 | 0.1 |
| {Acetyl(2-(4-imidazolyl))}-[Aib]QGTFTSDKSKYLDERAAQDFVQWLLDGGPSSGAPPPS (ends and bridges not checked) [triple agonist of SEQ ID NO: 62] | < 0.1 | 5.2 | < 0.1 |
| Y[Aib]QGTFTSDCSKYLDERAAKDFVQWLLDHHPSSGQPPPS (bridge 16-20) [triple agonist of SEQ ID NO: 72] | 1 | 11.5 | 1.6 |
| Y[Aib]QGTFTSDYSKYLDEKAAKEFVQWLLDHHPSSGQPPPSC (bridge 16-20) [triple agonist of SEQ ID NO: 75] | 8.5 | 35.1 | 18 |
| [Acetyl(2-(4-imidazolyl))][Aib]QGTFTSDYSKYLDEKRQKEFVNWLLAQC (bridge 16-20) [triple agonist of SEQ ID NO: 86] | 0.4 | 28.4 | 0.2 |
| Y[Aib]QGTFTSDYSKYLDECAAKDFVQWLLDHHPSSGQPPPS (bridge 16-20) [triple agonist of SEQ ID NO: 67] | 46.2 | 28.5 | 39.8 |
| H[Aib]EGTFTSDYSIAMDEIHQKDFVNWLLAQKC (bridge 16-20) [triple agonist of SEQ ID NO: 79] | 4.9 | 41.5 | 1.4 |
| Y[Aib]QGTFTSDYSKCLDEKAAKEFVQWLLDHHPSSGQPPPS (bridge 16-20) [triple agonist of SEQ ID NO: 68] | 8.8 | 27.9 | 107 |
| H[Aib]QGTFTSDVSKYLDGQAAQEFVAWLLAGC [triple agonist of SEQ ID NO: 9] | 0.13 | 32.1 | < 0.1 |
| Y[Aib]QGTFTSDYSKCLDERAAKEFVQWLLDHHPSSGQPPPS (bridge 16-20) [triple agonist of SEQ ID NO: 69] | 9.6 | 24.3 | 62.8 |
| {Acetyl(2-(4-imidazolyl))}-[Aib]QGTFTSDYSIAMDEIACKDFVNWLLNTK (bridge 15-19) [triple agonist of SEQ ID NO: 61] | < 0.1 | 59.8 | 2.8 |
| [Acetyl(2-(4-imidazolyl))][Aib]QGTFTSDYSIAMDEIHQKDFVNWLLAQC (bridge 16-20) [triple agonist of SEQ ID NO: 85] | < 0.1 | 4.3 | 0.3 |
| Y[Aib]QGTFTSDYSKCLDEKRAKDFVQWLLDHHPSSGQPPPS (bridge 16-20) [triple agonist of SEQ ID NO: 70] | 71.3 | 15.1 | 64.4 |
| [Acetyl(2-(4-imidazolyl))][Aib]EGTFTSDYSIAMDEIHQKDFVDWLLAEC (bridge 16-20) [triple agonist of SEQ ID NO: 84] | < 0.1 | 4.2 | < 0.1 |
| H[Aib]QGTFTSDYSKCLDEKRAKEFVQWLLDHHPSSGQPPPS (bridge 16-20) [triple agonist of SEQ ID NO: 65] | 25.2 | 95.4 | 11.6 |
| H[Aib]QGTFTSDYSKYLDEKRQKEFVQWLLDTKC (bridge 16-20) [triple agonist of SEQ ID NO: 78] | 14 | 51 | 0.12 |
| Y[Aib]QGTFTSDYSKYLDERACKDFVQWLLDHHPSSGQPPPS (bridge 16-20) [triple agonist of SEQ ID NO: 71] | 12.7 | 90.1 | 94.7 |
